Assay results published in the nanobody polyreactivity screen of Harvey et al. (2022).

Test: yeast display, Sf9 membrane polyspecificity reagent, FACS + sequencing; frameworks hold sequencing errors
Procedure, shortened: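 After 36–48 hours of galactose induction, yeast (Saccharomyces cerevisiae BJ5465) displaying a synthetic nanobody library were stained at 4 °C for 1 hour with 10% biotinylated, detergent-solubilized Sf9 membrane reagent. Streptavidin microbeads enriched the stained cells before FACS sorting into low and high (top ~1%) gates on anti-HA and streptavidin fluorescence. Each clone's polyreactivity label reflects its gate of origin.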

| Sequence | polyreactivity (PSR sort gate) |
| --- | --- |
| QVQLVESGGGLVQAGGSLRLSCAASGYIFQWYDMGWYRQAPGKERELVAAISVTTGSTYYADSVKGRFTISRDNAKNTVYLQMNSLKPEDTAVYYCAAVSWYRHDMYYWGQGTQVTVSS | low polyreactivity |
| QVQLVESGGGLVQAGGSLRLSCAASGRTFSGYAMGWYRQAPGKERELVAAITNRGGTYYADSVKGRFTISRDNAKNTVYVQMNSLKPEDTAVYSCAAYKYYARWVRGYDSWGQGTQVTVSS | high polyreactivity |
| QVQLVESGGGLVQAGGRLRLSCAASGSIFYNYAMGWYRQAPGKERELVAAITRSGGSTYYADSVKGRFTISRDNAKNTVYLQMNSLKPEDTAVYYCAARYPFGSLGRYGYWGQGTQVTVSS | high polyreactivity |
| QVQRVESGGGLVQAGGSLRLSCGASGSTFWAYVMGWYRPAPGKERELVAAMSSGGTTNYADSVKGRFTISRDNAKNTVYLQMNSLKPEDTAVYYCAAGRPGELDYWGQGTQVTVSS | low polyreactivity |
| QIQLVESVGGLVQAGGSLRLSCAASGSIFQYYAMGWYRQAPGKERELVAAISSGGSTYYADSVKGRFTISRENAKNTVYLQMNSLKPEDTAVYYCAADLQSGYTIPTSIVEYHPFDYWGQGTQGTVSS | low polyreactivity |
| QVQLVESGGGLVQAGGSLRLSCAASGIIFAFYAMGWYRQAPGKERELVATISKSGGRTYYADSVKGRFTISRDNAKNTVYLQMNSLKPEDTAVYYCAARIQYAFGADYYWGQGTQVTVSS | low polyreactivity |
| QVQLVESGGGLVQAGGSLRLSCAASGRTFAYYAMGWYKQAPGKERELVAAISWSGGSTYYADSVKGRFTISRDNAKNTVYLQMNSLKPEDTAVYYCAARRYGVPPTYDYWGQGTQVTVSW | high polyreactivity |
| QVQLVESGGGLVQAGGSLRLSCAASGFTFKSYAMGWYRQAPGKEREFVASISRRGGSTYYADSVKGRFTISRDNAKNTVYLQMNSLKPEDTAVYYCATDRPNWVFVDYNYWGQGTQVTVSS | high polyreactivity |
| QVQLVESGGGLVQAGGSLRLSCAASGSTFFYYTMGWYIQAPGKERELVADITRGGGTTYYADSVKGRFTISRDNAKNTVYLQMNSLKPEDTAVYYCNAPYPNARYWTGWGYYYWGQGTQVTVSS | high polyreactivity |
| QVQLVESGGGLVQAGGSLRLCCAASGSTFADNAMGWYRQAPGTDGEFVAGISTNGGSTYYADSVKGRFRISRDNAKTTVDCQLNSLKPEDTAVYDSAAVNYYDQYGDYYWGQGTQVTVSS | low polyreactivity |
| QVQLVESGGGLVQAVGRLRLSCAASGSNFQYYAMGWYRQAPGKERELVAAISSSGTGTSYADSVKGRFTISRDNAKNTVYLQMNSLKPEDTGVYYCAADYRDYPDSAYYYWGQGTQVTVSS | low polyreactivity |
| QVQLVESGGGLVQAGGSLRLSCAASGRISFRYAMGWYRQAPGKERELVAAINRGGITNYADSVKGRFTISRDNAKNTVYLQMNSLKPEDTAVYYCAARYASPRYKSKMDYWGQGTQVTVSS | high polyreactivity |
| QVQLVESGGGLVQAGGSLSLSCAASGSIFGDYVLGWYRQAPGKERELVAAINRGGSTYYADSVKGRFTISRDNAKNTVYLQMNSLKPEDTAVYYCAAGYPSWYYGYPYDSWGLGTQVTVSS | low polyreactivity |
| QVQLVESGGGLVQAGGSLRLSCAASGSIFSSYAMGWYRQAPGKERELVATITSSGGSTYYADSVKGRFTISRDNAKNTVYLQMNSLKPEVTAVYYCAASYHTSYSLRSYYYWGQGTQVTVSS | low polyreactivity |
| QVKLVESGGRLVQAGGILRLSSPASGFIFRGYARGWYRQAPGKERELVAAINSGGSTNYADSVKGRFTISRDNAKNTVYLQMIRLKPEETAVYYCAARVKTSYRYLRTYNYWGLGTQVTVSS | high polyreactivity |
| QVQLVESGGGLVQAGGSLRLSCAASGFIFTKYTMAWYRQAPGKERELVAAITGRGTSTSADSVKGRFTISRDNAKNTVYLQMNSLKPEDTAVYYCAAVGWFADFLFSDINGYYWGQGTQVTVSS | low polyreactivity |
| QVQLVESGGGLVQAGGSLRLSCAASGSTFDQYGMGWYRQAPGKDRELVAAITSVGGTNYADSVKGRFTISRDNAKKTVYLQMNSLKPEDTAVYYCARRYPKNHKAPGRMDYWGQGTQVTVSS | low polyreactivity |
| QVHIVESGGGLVQAGGSLRLSCAASGSNFTLYTMGWYRQAPGKERELVAAISTSGGRTYYADSVKGRFTISRDNAKNTVYLQMNSLKPEDTAVYYCNAGYWYYGQDDYWGQGTQVTVSS | high polyreactivity |
| QVQLVDSGGGLVQAGGSLRLSCAASGITFRGYAMGWYRQSPGKERELVATITSSGGSTYYADSVKGRFTISRDNAKNTVYLQMNSLKPEDTAVYYCAAVPYTRYSSSRGYWGQGTQVTVSS | high polyreactivity |
| QVQLVESGGGLVQAGGSLRLSCAASGGWYRQAPGKERELVAAISWRDSSTYYADSVKGRFTISRDNAKNTVYLQMNSLKPEDTAVYYCAVRAYPWPEYYYWGQGTQVTVSS | low polyreactivity |
| QVQLVESGGGLVQAGGSLRLSCAASGRIFYKYAMGWYRQAPGKERELVAGITGSGGSTYYADSVKGRFTISRDNAKNTVYLQMNSLKPEDTAVYYCAKRVSYDYWGQGTQVTVSS | low polyreactivity |
| QVQLVESGGCLVQAGGSLRLSCAASGRIFAWYAMGWYRQAPGKERELVAAISDSGGSTYYADSVKGRFTISRDNAKNTVYLQMNSLKQEDTAVYYCAADQVVYSAYWSDHYDYWGQGTQVTVSS | low polyreactivity |

| Sequence | polyreactivity (PSR sort gate) |
| --- | --- |
| QVQLVESGGGLVQAGGSLRLSSAASGSTSCPYAMGWYRQAPGKERELVATISWIGDRTYYADSVKGRFTISRDNAKNTFYLQMNSLKPEDTAVYYCNADYRGYANLEGDYWGQGTQVTVSS | low polyreactivity |
| QVQLVESGGALVQAGVSLRLSCAASGSIFRFYAMGWNKQAPGKERELVAAITSGGSTNYADSVKGRFTISRDNEKNTVYLQMNSLKPEDTAVFYCAAELVFFFIFDYWGQGTQVTVSS | low polyreactivity |
| QFQLVESGGGILQAGGSLRLSCAASGFIFSSYAMGWYRQAPGKERELVAAISKRGGSTYYADSVKGRFTISRDNAKNTVYLQMNSLKPEDTAVYYCARGSYPYRSFWLTSDYWGQVTQVTVSS | high polyreactivity |
| QVQLVESGGRLVEAGGSLRLSCAASGRTIPAYALGWYRQAPGKERELVAGISYRGGSTYYADSVKGRFTISRDKAKNTVYLPMNSLKPEDTAVYYCARVYSRNKGVYWGQGTQVPVSS | low polyreactivity |
| QVQLVESGGGLVQAGGSLRLTCAASGRIFKRYVMGWYRQAPGKERELVAAISVRGASTYYADSVKGRFTISRDHAKNTVYLQMNSLKPEDTAVYYCATAGYRLLDYWGQGTQVTVSS | high polyreactivity |
| QVQLVESGGGLVQAGGSLRLSCAASGRIFERYAMGWYRQAPGKERELVAAISWSGGSTYYADSVKGRFTISRDNAKNTVYLQMNSLKPEDTAVYYCAARKYRSFRQRTGDYWGQGTQVTVSS | high polyreactivity |
| QVQLVESGGGLVQAGASLRLSCAASGGIFVVYGMGWYRQAPGNERELVAAISWRGGSTYYADSVKGRFTISRDNAKNTVYLQMNSLKPEDTAVYYCAADQYYGGYDYWGQGTQVTVSS | low polyreactivity |
| QVQLVESGGGLVQAGGSLRLSCAASGSSLWENAMGWYRQAPGKERQLVATISVSGGGTYYADSVKGRFTISRDNAKNTVYLQMTSLKPEDTAVYYCTARYGNESQGWADYWGQGTQVTVSS | low polyreactivity |
| QVQLVESGGGLVQAGGSLRLSCAASGSTFYPYVMGWYRQAPGKEREFVAAISKSGGSTYYADSVKGRFTISRDNAKNTVYLQMNSLKPEDTAVYYCNKKVASYYRSYYYWGQGTQVTVSS | high polyreactivity |
| QVQLVESAAGLVQAGGSLRLSCAASGFIFQYYAMGWYRQAPGKERELVAAINRGGGTHYADSVKGRFTISRDNAKNTVYLQMNSLKREDTAVYYCNKVYYWPGSRPSRYEYWGQGTQVTVSS | low polyreactivity |
| QVQLVESGGGLVQAGGSLRLSCAASGFILGVYAMGWYRQAPGKERELVAAISKSGDSTYYADSVKGRFTISRDNAKNTVYLLMNSLKPEDTAVYYCNADWSWYNYYDFDYWGQGTQVTVSS | low polyreactivity |
| QVHLVESGGGLVQAGGSLRLSCAASGGTLYANAKGWYRQAPGKERELVATITSSSGSTSYADSVKGRFSISRDNAKNTVYLQKNSLKPEDTAVYYCAKDSHAQGPYRYIHYHHTGDYWGQGTQVTVSS | low polyreactivity |
| QVKLVESGAGLVQAGGSLRLSCAASGIIFAQYTMGWYRQAPGKERELVAAINRNGGSTYYADSVKGRFTISRDNAKNTVYLQMNSLKPEDTAVYYCNAEALGFRYDYWGQGTQVTVSS | low polyreactivity |
| QVQLVDSGRGLVQAGGSLRLSCAASGSTFRWNAMGWYRQAPGKERELVAAIDNSGTSTYYADSVKGRFTISRDNAKNTVYLQMNSLKPDDTAVYYCNVRISNTAYRYPTFDYWGQGTQVTVSS | low polyreactivity |
| QVQLVESGGGLVQAGGSLRLSCAASGITFVRYAMGWYRQAPGKERELVAAIRQNGGDTYYADSVKRRFTISRDNAKNTDYLQMNSLKPEDTAVYYCNARMRGAGGYTYYYWGQGTQVTVSS | high polyreactivity |
| QVQLVESGGGLVQAGGSLRLSCAASGFILYTYAMGWYRQAPGKERELVADIDSGDGTYYADSVKGRFTISRDNAKNTVYLQMNSLKPEDTAVYYCAAQVVTWSYVYDVPGYYRYDYWGQGTQVTVSS | low polyreactivity |
| QVQLVESGGGLVQAGGSLRLSCAASGRILYVYAMGWYIQAPGKERELVAAITSGGSTHYADSVKGRFTISRDNAKNTVYLQMNSLKPEDTAVYYCAAYTLRNRGGFNYWGQGTQVTVSS | high polyreactivity |
| QVQHVESGGGLVQAGGSLRLSCAASARIFYWYVMGWSRQAPGKERELVASISRSGGSTYYADSVKGRFTISRDNAKNTVYVQMNSLKPEDTAVYYCNAGSVYTVSLPGHPYDYWGQGTQVTVSS | low polyreactivity |
| QVQLVESGGGLVQAGGSHRFSCAASGFTFGHDTMGWYRQAPGKERELVAAITWRGGTYYADSEKGRFTISRDNAMNTVYLQMNSMKPEDTAVYYCAKRRASRYYWGQGTQVTVSS | high polyreactivity |
| QVQLVESGGRLVQAGGSLRLSCAASGSTFGVNTKGWYRQAPGKEREFVAAITYGGGGTYYADSVKGRFTISRDNAKNTVYLQMNSLKPEDTAVYYCAARRAPKYYWGQGTQVTVSS | high polyreactivity |
| QVQLVESGRGLVQAGGSLRLSCAASGRIFFKYAMGRYRPAPGKERELVAAISSSGGRTSYADSVKGRFTISRDNAKNTVYLQMNSLKPEDTAVYYCNVKPSARGSPLYDYWGQGTQVTVSS | high polyreactivity |
